This note sets out measurements from US20260242478A1 (published 2026).

For assay [1], the target named is T1, PSMA Fab (006 PSMA Fab).
T1 construct: also called Anti-PSMA Fab
Nature of the assay: phage binding ELISA; biotinylated PSMA Fab on neutravidin plate, clonal phage supernatant, anti-M13 HRP detection.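 Note: wells were preincubated with blocking buffer either containing PSMA antigen or without it before crude phage supernatant was added, briefly incubated, then washed prior to detection.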 For orientation: ELISA stands for enzyme-linked immunosorbent assay.
Procedure: (§1) Clonal phage were harvested as crude supernatants and screened via standard ELISAs. […] Prior to the addition of clonal phage. wells were incubated with blocking buffer and PSMA antigen or blocking buffer alone. Without washing or aspirating, clonal phage supernatants were then added to the wells and incubated for a short time. Wells were then washed followed by detection of bound phage using a horse radish conjugated anti-M13 antibody.

Assay [2] concerns the target T1, PSMA Fab (006 PSMA Fab). Nature of the assay: phage binding ELISA; PSMA Fab wells pre-incubated with PSMA antigen as competitor, anti-M13 HRP detection.
Procedure: as §1
Assay [3] has as its target T2, PSMA Fab (006 PSMA Fab).
T2 construct: also called Anti-PSMA Fab; anti-PSMA Fab
Nature of the assay: clonal phage ELISA on captured PSMA Fab, wells pre-incubated with PSMA antigen as competitor.
Procedure: as §1

The target in assay [4] is T2, PSMA Fab (006 PSMA Fab). Nature of the assay: clonal phage ELISA on biotinylated PSMA Fab captured on neutravidin, anti-M13-HRP detection.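 Note: crude clonal phage supernatants added to wells preincubated with PSMA antigen in blocking buffer or with blocking buffer alone, brief binding period.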
Procedure: as §1

Where no end group is shown, it is not given here.

For the molecule VTRMCVPEWMCSGI [Phage-3176], in the assay with PSMA Fab (006 PSMA Fab) [1], the “Phage binding ELISA signal, Anti-PSMA Fab” value came to 2.02. Besides, the “Phage binding ELISA signal, Anti-PSMA Fab with PSMA antigen” value with PSMA Fab (006 PSMA Fab) [2] worked out at 0.0628.

On to MDRMCVPEWMCYVF [Phage-3173], for which the “Phage binding ELISA signal, Anti-PSMA Fab” value with PSMA Fab (006 PSMA Fab) [1] came to 2.02. Further, the “Phage binding ELISA signal, Anti-PSMA Fab with PSMA antigen” value with PSMA Fab (006 PSMA Fab) [2] amounted to 0.0741.

Take HERECIPRWMCTGF [Phage-3180]: the “Phage binding ELISA signal, Anti-PSMA Fab” value with PSMA Fab (006 PSMA Fab) [1] amounted to 2.01. Also, the “Phage binding ELISA signal, Anti-PSMA Fab with PSMA antigen” value with PSMA Fab (006 PSMA Fab) [2] was found to be 0.065.

YEQACQPPWMCLGF [Phage-3178]: the “Phage binding ELISA signal, Anti-PSMA Fab” value with PSMA Fab (006 PSMA Fab) [1] worked out at 2.02. The “Phage binding ELISA signal, Anti-PSMA Fab with PSMA antigen” value with PSMA Fab (006 PSMA Fab) [2] amounted to 0.0671.

B1: Phage-3185 (peptide, not shown: large carriers)
peptide: IEKWCFPMWMCEGF
modifications: cysteine pairing not given here; also: fused to phage pIII, junction sequence not given here
notes: Clonal phage of the Peptide-180 library, tested as crude supernatant
For B1, the “Phage binding ELISA signal, Anti-PSMA Fab in presence of PSMA antigen” value (from here on “Phage binding ELISA signal … of PSMA antigen”) with PSMA Fab (006 PSMA Fab) [3] stood at 0.0806. Also, the “Phage binding ELISA signal, Anti-PSMA Fab” value with PSMA Fab (006 PSMA Fab) [4] came out at 2.01.

B2: Phage-3187 (peptide, not shown: large carriers)
peptide: AAPMCIPAWMCHGF
notes: as for B1
As for B2, the “Phage binding ELISA signal … of PSMA antigen” value with PSMA Fab (006 PSMA Fab) [3] turned out to be 0.137. Further, in the assay with PSMA Fab (006 PSMA Fab) [4], the “Phage binding ELISA signal, Anti-PSMA Fab” value came out at 2.

Regarding YPSMCKPLWMCQGF [Phage-3175], in the assay with PSMA Fab (006 PSMA Fab) [1], the “Phage binding ELISA signal, Anti-PSMA Fab” value came out at 2.02. For the same molecule, the “Phage binding ELISA signal, Anti-PSMA Fab with PSMA antigen” value with PSMA Fab (006 PSMA Fab) [2] stood at 0.111.

On to VTAKCVPEWMCTGF [Phage-3174], for which, in the assay with PSMA Fab (006 PSMA Fab) [1], the “Phage binding ELISA signal, Anti-PSMA Fab” value is 2.02. Further, the “Phage binding ELISA signal, Anti-PSMA Fab with PSMA antigen” value with PSMA Fab (006 PSMA Fab) [2] is 0.0968.

Regarding EGAICKPEWMCKGF [Phage-3183], in the assay with PSMA Fab (006 PSMA Fab) [1], the “Phage binding ELISA signal, Anti-PSMA Fab” value turned out to be 2.01. In addition, the “Phage binding ELISA signal, Anti-PSMA Fab with PSMA antigen” value in the assay with PSMA Fab (006 PSMA Fab) [2] was 0.0737.

YMMICRPAWMCSGL [Phage-3179]: the “Phage binding ELISA signal, Anti-PSMA Fab” value with PSMA Fab (006 PSMA Fab) [1] worked out at 2.01. Further, in the assay with PSMA Fab (006 PSMA Fab) [2], the “Phage binding ELISA signal, Anti-PSMA Fab with PSMA antigen” value worked out at 0.116.

YEPVCRPAWMCIGF [Phage-3177]: in the assay with PSMA Fab (006 PSMA Fab) [1], the “Phage binding ELISA signal, Anti-PSMA Fab” value worked out at 2.02. For the same molecule, in the assay with PSMA Fab (006 PSMA Fab) [2], the “Phage binding ELISA signal, Anti-PSMA Fab with PSMA antigen” value was 0.0622.

In the case of GVSMCIPAWMCQGF [Phage-3181], in the assay with PSMA Fab (006 PSMA Fab) [1], the “Phage binding ELISA signal, Anti-PSMA Fab” value was 2.01. For the same molecule, the “Phage binding ELISA signal, Anti-PSMA Fab with PSMA antigen” value in the assay with PSMA Fab (006 PSMA Fab) [2] is 0.0737.

B3: Phage-3171 (peptide)
peptide: GEVFCIPAWMCAGF
modifications: cysteine pairing not given here; also: fused to phage pIII, fusion site not given here
In the case of B3, the “Phage binding ELISA signal, Anti-PSMA Fab” value with PSMA Fab (006 PSMA Fab) [1] came out at 2.02. In addition, in the assay with PSMA Fab (006 PSMA Fab) [2], the “Phage binding ELISA signal, Anti-PSMA Fab with PSMA antigen” value came out at 0.107.

B4: Phage-3186 (peptide, not shown: large carriers)
peptide: VSELCRPAWMCHGF
notes: as for B1
For B4, the “Phage binding ELISA signal … of PSMA antigen” value with PSMA Fab (006 PSMA Fab) [3] worked out at 0.082. In addition, the “Phage binding ELISA signal, Anti-PSMA Fab” value with PSMA Fab (006 PSMA Fab) [4] was 2.

Regarding IQILCTPTWMCVGF [Phage-3182], in the assay with PSMA Fab (006 PSMA Fab) [1], the “Phage binding ELISA signal, Anti-PSMA Fab” value came to 2.01. Also, in the assay with PSMA Fab (006 PSMA Fab) [2], the “Phage binding ELISA signal, Anti-PSMA Fab with PSMA antigen” value is 0.0781.

Take MVRLCEPEWMCTGF [Phage-3184]: in the assay with PSMA Fab (006 PSMA Fab) [1], the “Phage binding ELISA signal, Anti-PSMA Fab” value amounted to 2.01. The “Phage binding ELISA signal, Anti-PSMA Fab with PSMA antigen” value in the assay with PSMA Fab (006 PSMA Fab) [2] stood at 0.116.

With ANLLCIPNWMCSGF [Phage-3172], the “Phage binding ELISA signal, Anti-PSMA Fab” value in the assay with PSMA Fab (006 PSMA Fab) [1] came to 2.02. Besides, the “Phage binding ELISA signal, Anti-PSMA Fab with PSMA antigen” value with PSMA Fab (006 PSMA Fab) [2] amounted to 0.0969.
